Source: patent publication US8357523B2, “Beta-glucosidase variant enzymes and related polynucleotides” (Codexis, Inc., priority 2009, dated 2013)
Positions count from the first letter of the chain named.

B1: Variant No. 5 (protein)
chain: STAIAQEGAAPAAILHPEKWPRPATQRLIDPAVEKRVDALLKQLSVEEKVGQVIQGDIGTITPEDLRKYPLGSILAGGNSGPNGDDRAPPKEWLDLADAFYRVSLEKRPGHTPIPVLFGIDAVHGHGNIGSATIFPHNIALGATRDPELLRRIGEVTAVEMAATGIDWTFAPALSVVRDDRWGRTYEGFSEDPEIVAAYSAAIVEGVQGKFGSKDFMAPGRIVASAKHFLADGGTDQGRDQGDARISEDELIRIHNAGYPPAIDAGVLTVMASFSSWQGIKHHGHKQLLTDVLKGQMGFNGFIVGDWNAHDQVPGCTKFNCPTSLIAGLDMYMAADSWKQLYENTLAQVKDGTIPMARLDDAVRRILRVKVLAGLFEKPAPKDRPGLPGLETLGSPEHRAVGREAVRKSLVLLKNDKGTLPLSPKARVLVAGDGADNIGKQSGGWTISWQGTGNRNDEFPGATSILGGIRDAVADAGGSVEFDVAGQYKTKPDVAIVVFGEEPYAEFQGDVETLEYQPDQKQDLALLKKLKDQGIPVVAVFLSGRPMWVNPELNASDAFVAAWLPGTEGGGVADVLFTDKAGKVQHDFAGKLSYSWPRTAAQTTVNRGDADYNPLFAYGYGLTYKDKSKVGTLPEESGVPAEARQNAGIYFRAGALRLPGRFL
B2: 405 (protein)
chain: SAAITQEGAAPAPMLHPEKWPRPATQRLIDPAVEKRVDALLKQLSVEEKVGQVIQGDIGTITPEDLRKYPLGSILAGGDSGPNGDDRAPPKEWLDLADAFYRVSLEKRPGHTPIPVLFGIDAVHGHNNIGSATIFPHNIALGMTRDPELLRRIGEVTAEEMAATGIDWTFAPALSVPRDDRWGRTYEGFSEDPEIVASYSAAIVEGFQGKYGSKDFMAPGRAVACAKHFLADGGTDQGRDQGDARISEDELIRIHNAGYPPAIDAGVLTVMASFSSWQGIKHHGHKQLLTDVLKGQMGFNGFIVGDWNAHDQVPGCTKFNCPTSLIAGLDMYMAADSWKQLYENTLAQVKDGTIPMARLDDAVRRILRVKVLAGLFEKPAPKDRPGLPGLETLGSPEHRTVGREAVRKSLVLLKNDKGTLPLSPKARVLVAGDGADNIGKQSGGWTISWQGTGNRNDEFPGATSILGGIRDAVADAGGSVEFDVAGQYKTKPDVAIVVFGEEPYAEFRGDVETLEYQPDQKQDLTLLKKLKDQGIPVVAVFLSGRPMWVNPELNASDAFVAAWLPGTEGGGVADVLFTDKAGKVQYDFAGKLSYSWPRTAAQTTVNRGDADYNPLFAYGYGLTYKDKSKVGTLPEESGVPAEARQNAGIYFRAGALRLPGRFL
modifications: truncated; signal peptide F-10T
B3: 421 (protein)
chain: B2 chain with P13A, P109D, E502N
modifications: truncated; signal peptide F-10T
B4: 417 (protein)
chain: B2 chain with P13A, T400A, R508Q, Y586H
modifications: truncated; signal peptide F-10T
B5: 414 (protein)
chain: B2 chain with A3R, P13A, P177V, I203Y, E502N, T525S, Y586H
modifications: truncated; signal peptide F-10T
B6: 426 (protein)
chain: B2 chain with P13A, Y586H
modifications: truncated; signal peptide F-10T
B7: 411 (protein)
chain: B2 chain with P13A, L372S, T400A, Y586H
modifications: truncated; signal peptide F-10T
B8: 419 (protein)
chain: B2 chain with A3R, P13A, P109D, P147T, T400A
modifications: truncated; signal peptide F-10T
B9: 425 (protein)
chain: B2 chain with A3R, P13A, P147T, E502N, Y586H
modifications: truncated; signal peptide F-10T
B10: 410 (protein)
chain: B2 chain with P13A, T400A, E502N, T525S, Y586H
modifications: truncated; signal peptide F-10T
B11: 415 (protein)
chain: B2 chain with N128H, T400A, E502N, R508Q, Y586H
modifications: truncated; signal peptide F-10T
B12: 412 (protein)
chain: B2 chain with P13A, T400A, E502N, R508Q, Y586H
modifications: truncated; signal peptide F-10T
B13: 409 (protein)
chain: B2 chain with P13A, P109D, P147T, T400A, T525S, Y586H
modifications: truncated; signal peptide F-10T
B14: 416 (protein)
chain: B2 chain with P13A, P109D, D351E, T400A
modifications: truncated; signal peptide F-10T
B15: 413 (protein)
chain: B2 chain with A3R, P147T, T400A, E502N
modifications: truncated; signal peptide F-10T
B16: 423 (protein)
chain: B2 chain with P13A, P109D, Y586H
modifications: truncated; signal peptide F-10T
B17: 408 (protein)
chain: B2 chain with P147T, A226G, T400A
modifications: truncated; signal peptide F-10T
B18: 407 (protein)
chain: B2 chain with P13A, P109D, P147T, T400A, E502N
modifications: truncated; signal peptide F-10T
B19: 418 (protein)
chain: B2 chain with A3R, P177V, I203Y, Y586H
modifications: truncated; signal peptide F-10T, N-5H
B20: 427 (protein)
chain: B2 chain with P13A, N128H, T400A, E502N
modifications: truncated; signal peptide F-10T
B21: 406 (protein)
chain: B2 chain with A3R, P147T, E159G, T400A, Y586H
modifications: truncated; signal peptide F-10T
B22: 424 (protein)
chain: B2 chain with V204I, D291G, T400A, Y586H
modifications: truncated; signal peptide F-10T
B23: 422 (protein)
chain: B2 chain with P147T, E502N, R508Q, Y586H
modifications: truncated; signal peptide F-10T

assay: Enzyme stability: residual activity on pNPG after pre-incubation at high temperature and low pH; assay type: biochemical; details: pre-incubation 10 mins at pH 5.5, 55° C.; residual activity on pNPG at pH 7, 30° C., 1 hr
Protocol: Residual activity is determined by exposing the enzyme to stress conditions of elevated temperature for a period of time and then determining the β-glucosidase activity. The β-glucosidase activity of the enzyme exposed to stress conditions (“a”) is compared to that of a control in which the enzyme is not exposed to the stress conditions (“b”), and residual activity is equal to the ratio a/b. Exemplary conditions for determining thermostability are provided in Examples 9 and 13. In one embodiment the enzymes are exposed to stress conditions of 50° C. at pH 5.5 or 55° C. at pH 5.0 or 55° C. at pH 5.5, or 65° C. at pH 5.0 for about 1 hour, and assayed at 30° C., pH 7, for about 0.1 hour.
A colorimetric pNPG (p-nitrophenyl-(β-D-glucopyranoside)-based assay was used for measuring β-glucosidase activity. In a total volume of 100 μL, 20 μL clear media supernatant containing β-glucosidase enzyme was added to 4 mM pNPG (Sigma-Aldrich, Inc. St. Louis, Mo.) solution in 50 mM sodium phosphate buffer at pH6.5. The reactions were incubated at pH 6.5, 45° C. for 1 hour. The reaction mixture was quenched with 100 μL of 1M sodium carbonate pH 11 solution. The absorbance of the solution was measured at 405 nm to determine the conversion of pNPG to p-nitrophenol. The release of p-nitrophenol (ε=17,700 M−1 cm−1) was measured at 405 nm to calculate β-glucosidase activity. Detectable β-glucosidase activity was observed under high throughput screening conditions (pH 7, 50° C.).
Four CelA variants and wildtype CelA were characterized to determine their stabilities at high temperature (55° C.) and low pH (pH5.5) using the method of Example 5A. The samples containing various CelA variant enzymes were pre-incubated at pH 5.5, 55° C. for 0-6 hrs. The residual enzyme activity after the thermal challenge was measured using pNPG as substrate at pH 7, 30° C. for 1 hr. […] The mutations listed in the table are indicated relative to SEQ ID NO: 4, the wildtype CelA. These sequences included residues GTS prior to the N-terminus of SEQ ID NO: 4 (prepared as described in Example 1). […]

| Molecule | % residual activity after 10 mins @ pH 5.5, 55° C. |
| --- | --- |
| B1 | 0% |

same assay, conditions: pre-incubation 1 hour at pH 5.5, 55° C., residual activity on pNPG at pH 7, 30° C.

| Molecule | % residual activity after 1 hour @ pH 5.5, 55° C. |
| --- | --- |
| B1 | 0% |

same assay, conditions: pre-incubation 6 hours at pH 5.5, 55° C.; residual activity on pNPG at pH 7, 30° C., 1 hr

| Molecule | % residual activity after 6 hours @ pH 5.5, 55° C. |
| --- | --- |
| B1 | 0% |

assay: High throughput cellobiose assay: fold improvement in cellobiase activity of CelA variants over a control enzyme (Tables 2A-2D, 3, 5, 6, 7); assay type: biochemical; details: 3.3 g/l cellobiose, 65° C. and pH 5 (incubation overnight); relative to Control #5, Variant No. 366 (SEQ ID NO: 9)

| Molecule | Fold Improvement over Control Variant |
| --- | --- |
| B2 | ++ (++ = 1.1 to 2.0 fold improvement over control Variant No. 366) |
| B3 | ++ (++ = 1.1 to 2.0 fold improvement over control Variant No. 366) |
| B4 | ++ (++ = 1.1 to 2.0 fold improvement over control Variant No. 366) |
| B5 | ++ (++ = 1.1 to 2.0 fold improvement over control Variant No. 366) |
| B6 | ++ (++ = 1.1 to 2.0 fold improvement over control Variant No. 366) |
| B7 | ++ (++ = 1.1 to 2.0 fold improvement over control Variant No. 366) |
| B8 | ++ (++ = 1.1 to 2.0 fold improvement over control Variant No. 366) |
| B9 | +++ (+++ = 2.1 to 3.0 fold improvement over control Variant No. 366) |
| B10 | +++ (+++ = 2.1 to 3.0 fold improvement over control Variant No. 366) |
| B11 | ++ (++ = 1.1 to 2.0 fold improvement over control Variant No. 366) |
| B12 | +++ (+++ = 2.1 to 3.0 fold improvement over control Variant No. 366) |
| B13 | +++ (+++ = 2.1 to 3.0 fold improvement over control Variant No. 366) |
| B14 | ++ (++ = 1.1 to 2.0 fold improvement over control Variant No. 366) |
| B15 | +++ (+++ = 2.1 to 3.0 fold improvement over control Variant No. 366) |
| B16 | ++ (++ = 1.1 to 2.0 fold improvement over control Variant No. 366) |
| B17 | +++ (+++ = 2.1 to 3.0 fold improvement over control Variant No. 366) |
| B18 | +++ (+++ = 2.1 to 3.0 fold improvement over control Variant No. 366) |
| B19 | ++ (++ = 1.1 to 2.0 fold improvement over control Variant No. 366) |
| B20 | ++ (++ = 1.1 to 2.0 fold improvement over control Variant No. 366) |
| B21 | ++ (++ = 1.1 to 2.0 fold improvement over control Variant No. 366) |
| B22 | ++ (++ = 1.1 to 2.0 fold improvement over control Variant No. 366) |
| B23 | +++ (+++ = 2.1 to 3.0 fold improvement over control Variant No. 366) |

same assay, conditions: assay of Example 7

| Molecule | activity (e.g., thermoactivity) over the wildtype A. irakense β-glucosidase |
| --- | --- |
| B1 | improved activity |
